Here are results for three molecules from article PMC6872946 (Growth factors (Chur, Switzerland), 2019).

In series [1] the target is PDGF-C growth factor domain (human). Nature of the series: immunoblot after cleavage with matriptase. (In general: A western blot detects proteins with antibodies after separation by electrophoresis.)
Series [2] deals with the molecule itself. Nature of the series: non-reducing SDS-PAGE and immunoblot.
Series [3] concerns the molecule itself. Nature of the series: non-reducing SDS-PAGE and immunoblot. The source holds these as a separate data set.

Read-outs that look alike come from different tables or passages of the source.

For the molecule “PDGF-C growth factor domain (domain or fragment)”, the stoichiometry N (in general, the number of molecules, sites or subunits per partner or assembly) in series [1] stood at 2.

B1: truncated PDGF-C isoform with a C-terminal myc tag (t-PDGF-C-myc), in COS-1 cells (natural protein, human, UniProt Q9NRA1 164-345, looked up)
chain: MPQFTEAVSPSVLPPSALPLDLLNNAITAFSTLEDLIRYLEPERWQLDLEDLYRPTWQLLGKAFVFGRKSRVVDLNLLTEEVRLYSCTPRNFSVSIREELKRTDTIFWPGCLLVKRCGGNCACCLHNCNECQCVPSKVTKKYHEVLQLRPKTGVRGLHKSLTDVALEHHEECDCVCRGSTGG
Turning to B1, the “stoichiometry N” value in series [2] was determined as 2.

B2: truncated PDGF-C isoform with a myc tag (t-PDGF-C/myc), stably expressed in BT-549 cells (natural protein, human, UniProt Q9NRA1 164-345, looked up)
chain: B1 chain
Take B2: the “stoichiometry N” value in series [3] was determined as 2.
